Measurements taken from IntAct's records for PubMed 34927784.

B1: Endosomal transmembrane epsin interactor 1 (Homo sapiens), Q15884 (parent)
chain: MILLVNLFVLLSVVCVLLNLAGFILGCQGAQFVSSVPRCDLVDLGEGKICFCCEEFQPAKCTDKENALKLFPVQPCSAVHLLLKKVLFALCALNALTTTVCLVAAALRYLQIFATRRSCIDESQISAEEAEDHGRIPDPDDFVPPVPPPSYFATFYSCTPRMNRRMVGPDVIPLPHIYGARIKGVEVFCPLDPPPPYEAVVSQMDQEQGSSFQMSEGSEAAVIPLDLGCTQVTQDGDIPNIPAEENASTSTPSSTLVRPIRSRRALPPLRTRSKSDPVLHPSEERAAPVLSCEAATQTERRLDLAAVTLRRGLRSRASRCRPRSLIDYKSYMDTKLLVARFLEQSSCTMTPDIHELVENIKSVLKSDEEHMEEAITSASFLEQIMAPLQPSTSRAHKLPSRRQPGLLHLQSCGDLHTFTPAGRPRAERRPRRVEAERPHSLIGVIRETVL

Legend:
[1] = variants of: B1; details: with ITCH
[2] = variants of: B1; details: with epn1_human EPN1, Q9Y6I3
[3] = variants of: B1; details: with ITCH; remark: listed apart in the source
[4] = variants of: B1; details: with ITCH; remark: listed apart in the source

epn1_human EPN1, Q9Y6I3, sequence (Q9Y6I3 whole entry): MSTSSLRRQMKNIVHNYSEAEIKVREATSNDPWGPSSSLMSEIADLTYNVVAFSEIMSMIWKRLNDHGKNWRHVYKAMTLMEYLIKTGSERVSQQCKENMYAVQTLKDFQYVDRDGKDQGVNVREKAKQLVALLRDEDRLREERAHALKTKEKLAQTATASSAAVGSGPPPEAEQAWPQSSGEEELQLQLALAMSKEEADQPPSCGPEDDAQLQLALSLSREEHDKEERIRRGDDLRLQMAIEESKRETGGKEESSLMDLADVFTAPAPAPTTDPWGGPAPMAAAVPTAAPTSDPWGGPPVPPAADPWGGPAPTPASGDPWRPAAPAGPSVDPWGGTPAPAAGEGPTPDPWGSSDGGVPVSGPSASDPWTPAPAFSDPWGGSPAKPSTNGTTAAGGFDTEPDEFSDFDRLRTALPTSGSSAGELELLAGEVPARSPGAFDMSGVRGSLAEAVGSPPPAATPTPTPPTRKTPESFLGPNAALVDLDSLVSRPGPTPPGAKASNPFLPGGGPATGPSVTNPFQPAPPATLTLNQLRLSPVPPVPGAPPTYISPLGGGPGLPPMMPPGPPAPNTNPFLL

Variant | effect of a mutation on the interaction [1] | effect of a mutation on the interaction [2] | effect of a mutation on the interaction [3] | effect of a mutation on the interaction [4]
MILLVNLFVLLSVVCVLLNLAGFILGCQGAQFVSSVPRCDLVDLGEGKICFCCEEFQPAKCTDKENALKLFPVQPCSAVHLLLKKVLFALCALNALTTTVCLVAAALRYLQIFATRRSCIDESQISAEEAEDHGRIPDPDDFVPPVPPPSAFATFYSCTPRMNRRMVGPDVIPLPHIYGARIKGVEVFCPLDPPPPAEAVVSQMDQEQGSSFQMSEGSEAAVIPLDLGCTQVTQDGDIPNIPAEENASTSTPSSTLVRPIRSRRALPPLRTRSKSDPVLHPSEERAAPVLSCEAATQTERRLDLAAVTLRRGLRSRASRCRPRSLIDYKSYMDTKLLVARFLEQSSCTMTPDIHELVENIKSVLKSDEEHMEEAITSASFLEQIMAPLQPSTSRAHKLPSRRQPGLLHLQSCGDLHTFTPAGRPRAERRPRRVEAERPHSLIGVIRETVL [Y151A;Y197A] | decreasing interaction strength | with no effect | with no effect | disrupting interaction strength
MILLVNLFVLLSVVCVLLNLAGFILGCQGAQFVSSVPRCDLVDLGEGKICFCCEEFQPAKCTDKENALKLFPVQPCSAVHLLLKKVLFALCALNALTTTVCLVAAALRYLQIFATRRSCIDESQISAEEAEDHGRIPDPDDFVPPVPPPSYFATFYSCTPRMNRRMVGPDVIPLPHIYGARIKGVEVFCPLDPPPPAEAVVSQMDQEQGSSFQMSEGSEAAVIPLDLGCTQVTQDGDIPNIPAEENASTSTPSSTLVRPIRSRRALPPLRTRSKSDPVLHPSEERAAPVLSCEAATQTERRLDLAAVTLRRGLRSRASRCRPRSLIDYKSYMDTKLLVARFLEQSSCTMTPDIHELVENIKSVLKSDEEHMEEAITSASFLEQIMAPLQPSTSRAHKLPSRRQPGLLHLQSCGDLHTFTPAGRPRAERRPRRVEAERPHSLIGVIRETVL [Y197A] | decreasing interaction strength |  |  | 
MILLVNLFVLLSVVCVLLNLAGFILGCQGAQFVSSVPRCDLVDLGEGKICFCCEEFQPAKCTDKENALKLFPVQPCSAVHLLLKKVLFALCALNALTTTVCLVAAALRYLQIFATRRSCIDESQISAEEAEDHGRIPDPDDFVPPVPPPSAFATFYSCTPRMNRRMVGPDVIPLPHIYGARIKGVEVFCPLDPPPPYEAVVSQMDQEQGSSFQMSEGSEAAVIPLDLGCTQVTQDGDIPNIPAEENASTSTPSSTLVRPIRSRRALPPLRTRSKSDPVLHPSEERAAPVLSCEAATQTERRLDLAAVTLRRGLRSRASRCRPRSLIDYKSYMDTKLLVARFLEQSSCTMTPDIHELVENIKSVLKSDEEHMEEAITSASFLEQIMAPLQPSTSRAHKLPSRRQPGLLHLQSCGDLHTFTPAGRPRAERRPRRVEAERPHSLIGVIRETVL [Y151A] | with no effect |  |  | 
